According to patent US20150098945A1 (Daiichi Sankyo, published 2015):

T1: N-terminal FLAG-tagged cynomolgus monkey ROBO4, cynoROBO4-2 (pCI-FLAG-cynoROBO4-2) (cynomolgus monkey, UniProt Q8WZ75 28-1007 (human entry))
T1 chain: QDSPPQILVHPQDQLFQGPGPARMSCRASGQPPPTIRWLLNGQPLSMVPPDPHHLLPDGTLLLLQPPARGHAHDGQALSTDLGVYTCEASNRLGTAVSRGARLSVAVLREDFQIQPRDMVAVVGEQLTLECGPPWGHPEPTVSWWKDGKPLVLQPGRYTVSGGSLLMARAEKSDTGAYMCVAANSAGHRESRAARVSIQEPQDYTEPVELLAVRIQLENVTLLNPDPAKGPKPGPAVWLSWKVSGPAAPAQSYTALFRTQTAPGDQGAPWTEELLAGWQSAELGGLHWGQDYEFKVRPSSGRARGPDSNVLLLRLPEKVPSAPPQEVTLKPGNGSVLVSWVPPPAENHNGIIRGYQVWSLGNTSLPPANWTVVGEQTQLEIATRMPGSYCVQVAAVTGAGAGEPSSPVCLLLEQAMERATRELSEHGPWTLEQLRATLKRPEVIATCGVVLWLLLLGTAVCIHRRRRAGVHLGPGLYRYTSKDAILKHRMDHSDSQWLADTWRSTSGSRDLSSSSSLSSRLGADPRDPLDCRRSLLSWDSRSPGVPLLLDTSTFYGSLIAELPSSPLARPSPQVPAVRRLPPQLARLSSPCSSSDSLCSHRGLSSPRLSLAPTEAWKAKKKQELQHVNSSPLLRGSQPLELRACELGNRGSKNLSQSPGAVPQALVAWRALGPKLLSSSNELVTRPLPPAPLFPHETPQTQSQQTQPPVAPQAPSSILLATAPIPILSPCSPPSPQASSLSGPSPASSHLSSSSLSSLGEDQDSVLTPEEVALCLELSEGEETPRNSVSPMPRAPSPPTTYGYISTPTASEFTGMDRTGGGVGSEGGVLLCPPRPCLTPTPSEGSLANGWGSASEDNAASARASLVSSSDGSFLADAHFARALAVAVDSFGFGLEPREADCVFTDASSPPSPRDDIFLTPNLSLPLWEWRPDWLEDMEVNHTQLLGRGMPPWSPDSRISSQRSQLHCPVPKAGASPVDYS

T2: N-terminal FLAG-tagged cynomolgus monkey ROBO4, cynoROBO4-1 (pCI-FLAG-cynoROBO4-1) (cynomolgus monkey, UniProt Q8WZ75 28-1007 (human entry))
T2 chain: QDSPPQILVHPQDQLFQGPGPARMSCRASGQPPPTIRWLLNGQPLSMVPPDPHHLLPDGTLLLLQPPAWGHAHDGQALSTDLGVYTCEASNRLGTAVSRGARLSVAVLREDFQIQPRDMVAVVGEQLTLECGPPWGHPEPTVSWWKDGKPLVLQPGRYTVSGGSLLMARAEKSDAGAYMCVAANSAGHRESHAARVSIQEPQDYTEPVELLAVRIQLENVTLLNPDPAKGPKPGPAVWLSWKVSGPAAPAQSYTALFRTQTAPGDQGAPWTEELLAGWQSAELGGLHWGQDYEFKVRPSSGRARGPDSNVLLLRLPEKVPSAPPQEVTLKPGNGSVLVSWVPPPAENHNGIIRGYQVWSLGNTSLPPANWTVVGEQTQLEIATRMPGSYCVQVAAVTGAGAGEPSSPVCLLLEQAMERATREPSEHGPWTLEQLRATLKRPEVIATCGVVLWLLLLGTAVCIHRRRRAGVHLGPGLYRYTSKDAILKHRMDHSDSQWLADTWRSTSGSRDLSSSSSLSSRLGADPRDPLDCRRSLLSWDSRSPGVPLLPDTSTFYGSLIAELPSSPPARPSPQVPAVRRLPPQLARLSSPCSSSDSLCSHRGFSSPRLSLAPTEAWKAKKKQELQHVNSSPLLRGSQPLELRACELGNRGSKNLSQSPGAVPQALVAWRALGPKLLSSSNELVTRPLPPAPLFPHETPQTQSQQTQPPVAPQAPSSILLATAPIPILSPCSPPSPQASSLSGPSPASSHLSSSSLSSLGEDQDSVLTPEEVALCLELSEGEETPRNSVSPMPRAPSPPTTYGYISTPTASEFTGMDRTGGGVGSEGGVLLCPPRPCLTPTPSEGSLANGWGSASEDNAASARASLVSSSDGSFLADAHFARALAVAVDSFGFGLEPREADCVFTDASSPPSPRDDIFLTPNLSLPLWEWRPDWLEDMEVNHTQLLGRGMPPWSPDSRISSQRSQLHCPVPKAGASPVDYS


Assays:
[1] = biological target: T1, N-terminal FLAG-tagged cynomolgus …; assay: flow cytometry on transfected HEK293 cells
[2] = biological target: T2, N-terminal FLAG-tagged cynomolgus …; assay: flow cytometry, HEK293 cells transfected with pCI-FLAG-cynoROBO4-1, antibody at 10 µg/mL, anti-mouse IgG FITC; control histogram IgG (Mouse IgG2a)
Description: HEK293 cells were inoculated at a concentration of 1.5×10⁶ cells/dish to a 60-mm dish (manufactured by Corning Inc.) and cultured overnight in a DMEM medium containing 10% FBS at 37° C. under 5% CO₂ conditions. On the next day, the HEK293 cells were transfected with pCI-hROBO4, pCI-mROBO4, pCI-raROBO4, pCI-FLAG-cynoROBO4-1, pCI-FLAG-cynoROBO4-2, pCI-hROBO1, pCI-hROBO2, or pCI-hROBO3 using FuGENE6 Transfection Reagent and further cultured overnight at 37° C. under 5% CO₂ conditions. On the next day, the expression vector-transfected cells were treated with TrypLE Express (manufactured by Life Technologies Corp.), washed with PBS containing 5% FBS, and then suspended in PBS containing 5% FBS. The obtained cell suspension was used in flow cytometry analysis.
Each cell suspension prepared in 4)-3-1 was centrifuged, and the supernatant was removed. Then, MAb1 or a negative control Mouse IgG2a was added at a concentration of 10 μg/mL to 2×10⁵ expression vector-transfected cells, and the resulting suspension was left standing at 4° C. for 1 hour. […] Data was analyzed using Flowjo. The histogram of FITC fluorescence intensity was prepared. The antibody was determined to bind in a cross-species manner when the histogram of MAb1 was shifted to a stronger fluorescence intensity region compared with the histogram of the negative control Mouse IgG2a.

Binder | binding result [1] | binding result [2]
humanized MAb1 antibody H-1140 (antibody, human IgG2, kappa, V domains shown, Human IgG2 / kappa constant regions; also called hMAb1-H2-type heavy chain + hMAb1-L1-type light chain) VH: EVQLVESGGGLVQPGGSLRLSCAASGFTFSTYAMSWVRQAPGKGLEWVATISQGGTYTYYPDSVKGRFTISRDNAKNTLYLQMNSLRAEDTAVYYCARLIYYDYLDYWGQGTLVTVSS VL: DIVMTQSPLSLPVTLGEPASISCRSSQSLENSNGNTYLNWYLQKPGQSPQLLIYRVSNRFSGVPDRFSGSGSGTDFTLKISRVEAEDVGVYYCLQVTHVPWTFGPGTKVDIKR | binds | 
anti-ROBO4 mouse monoclonal antibody MAb1 (antibody, mouse IgG1, V domains shown, Mouse IgG1 (gamma1), kappa light chain, purified from hybridoma supernatant; also called parent antibody MAb1) VH: EVQLVESGGGLVKPGGSLKLSCAASGFTFSTYAMSWVRQTPEKRLEWVATISNGGTYTYYPDSVKGRFTISRDNAENTLYLQMSSLRSEDTAMYFCARLIYYDYLDYWGHGTTLTVSS VL: DAVMTQTPLSLPVSLGDQASISCRSSQSLENSNGNTYLNWYFQKPGQSPQLLIYRVSNRFSGVLDRFSGSGSGTDFTLKISRVEAEDFGVYFCLQVTHVPWTFGGGTKLEIKR |  | binds
